Experimental data reported in patent US20210179706A1.
Several values for one entry are separate records, joined by “and”; a condition that tells them apart may be missing. Equal values may be shown once. Read-outs that look alike come from different tables or passages of the source.

Columns and labels:
[1] = target: human IL-1β-His-Bio (human) (UniProt P01584); assay: ELISA, IL-1β-His-Bio captured on streptavidin; antibody 0.333 µg/mL diluted 1:729
human IL-1β-hFc (human) [2] = target: human IL-1β-hFc (human) (UniProt P01584); assay: competition ELISA on coated IL-1β-hFc, competitor IL-1R1(1-332)-his (anti-His-HRP read-out); antibody 0.111 µg/mL
[3] = target: human IL-1β-His-Bio (human) (UniProt P01584); assay: ELISA, IL-1β-His-Bio captured on streptavidin; antibody 1 µg/mL
human IL-1β-hFc (human) [4] = target: human IL-1β-hFc (human) (UniProt P01584); assay: competition ELISA on coated IL-1β-hFc, competitor IL-1R1(1-332)-his (anti-His-HRP read-out); antibody 0.333 µg/mL
[5] = target: human IL-1β-His-Bio (human) (UniProt P01584); assay: ELISA, IL-1β-His-Bio captured on streptavidin; antibody 0.333 µg/mL diluted 1:9
human IL-1β-hFc (human) [6] = target: human IL-1β-hFc (human) (UniProt P01584); assay: competition ELISA on coated IL-1β-hFc, competitor IL-1R1(1-332)-his (anti-His-HRP read-out); antibody 0.037 µg/mL
[7] = target: human IL-1β-His-Bio (human) (UniProt P01584); assay: ELISA, IL-1β-His-Bio captured on streptavidin; antibody 0.333 µg/mL diluted 1:81
[8] = target: human IL-1β-His-Bio (human) (UniProt P01584); assay: ELISA, IL-1β-His-Bio captured on streptavidin; antibody 0.333 µg/mL diluted 1:27
human IL-1β-hFc (human) [9] = target: human IL-1β-hFc (human) (UniProt P01584); assay: competition ELISA on coated IL-1β-hFc, competitor IL-1R1(1-332)-his (anti-His-HRP read-out); antibody 0.111 µg/mL; remark: listed apart in the source
[10] = target: human IL-1β-His-Bio (human) (UniProt P01584); assay: ELISA, IL-1β-His-Bio captured on streptavidin; antibody 0.333 µg/mL
[11] = target: human IL-1β-His-Bio (human) (UniProt P01584); assay: ELISA, IL-1β-His-Bio captured on streptavidin; 4-parameter fit
human IL-1β-hFc (human) [12] = target: human IL-1β-hFc (human) (UniProt P01584); assay: competition ELISA on coated IL-1β-hFc, competitor IL-1R1(1-332)-his (anti-His-HRP read-out); antibody 0.004 µg/mL
human IL-1β-hFc (human) [13] = target: human IL-1β-hFc (human) (UniProt P01584); assay: competition ELISA on coated IL-1β-hFc, competitor IL-1R1(1-332)-his (anti-His-HRP read-out); antibody 1.000 µg/mL
[14] = target: human IL-1β-His-Bio (human) (UniProt P01584); assay: ELISA, IL-1β-His-Bio captured on streptavidin; antibody 0.012 µg/mL
human IL-1β-hFc (human) [15] = target: human IL-1β-hFc (human) (UniProt P01584); assay: competition ELISA on coated IL-1β-hFc, competitor IL-1R1(1-332)-his (anti-His-HRP read-out); antibody 0.333 µg/mL; remark: listed apart in the source
human IL-1β-hFc (human) [16] = target: human IL-1β-hFc (human) (UniProt P01584); assay: competition ELISA on coated IL-1β-hFc, competitor IL-1R1(1-332)-his (anti-His-HRP read-out); antibody 0.012 µg/mL
human IL-1β-hFc (human) [17] = target: human IL-1β-hFc (human) (UniProt P01584); assay: competition ELISA on coated IL-1β-hFc, competitor IL-1R1(1-332)-his; 4-parameter fit
[18] = target: human IL-1β-His-Bio (human) (UniProt P01584); assay: ELISA, IL-1β-His-Bio captured on streptavidin; antibody 0.037 µg/mL
human IL-1β-hFc (human) [19] = target: human IL-1β-hFc (human) (UniProt P01584); assay: competition ELISA on coated IL-1β-hFc, competitor IL-1R1(1-332)-his (anti-His-HRP read-out); antibody 0.001 µg/mL
human IL-1β-his (human) = human IL-1β-his (human) (UniProt P01584); assay: SPR (Biacore), antibody amine-coupled on CM5, IL-1β 1.56-25 nM as analyte
[20] = target: human IL-1β-His-Bio (human) (UniProt P01584); assay: ELISA, IL-1β-His-Bio captured on streptavidin; antibody 0.333 µg/mL diluted 1:243
human IL-1β-hFc (human) [21] = target: human IL-1β-hFc (human) (UniProt P01584); assay: competition ELISA on coated IL-1β-hFc, competitor IL-1R1(1-332)-his (anti-His-HRP read-out); antibody 0.004 µg/mL; remark: listed apart in the source
[22] = target: human IL-1β-His-Bio (human) (UniProt P01584); assay: ELISA, IL-1β-His-Bio captured on streptavidin; antibody 0.333 µg/mL; remark: listed apart in the source
[23] = target: human IL-1β-His-Bio (human) (UniProt P01584); assay: ELISA, IL-1β-His-Bio captured on streptavidin; antibody 0.333 µg/mL diluted 1:3
[24] = target: human IL-1β-His-Bio (human) (UniProt P01584); assay: ELISA, IL-1β-His-Bio captured on streptavidin; antibody 0.111 µg/mL
[25] = target: human IL-1β-His-Bio (human) (UniProt P01584); assay: ELISA, IL-1β-His-Bio captured on streptavidin; antibody 0.001 µg/mL
human IL-1β-hFc (human) [26] = target: human IL-1β-hFc (human) (UniProt P01584); assay: competition ELISA on coated IL-1β-hFc, competitor IL-1R1(1-332)-his (anti-His-HRP read-out); antibody 0.012 µg/mL; remark: listed apart in the source
human IL-1β-hFc (human) [27] = target: human IL-1β-hFc (human) (UniProt P01584); assay: competition ELISA on coated IL-1β-hFc, competitor IL-1R1(1-332)-his (anti-His-HRP read-out); antibody 0.001 µg/mL; remark: listed apart in the source
human IL-1β-hFc (human) [28] = target: human IL-1β-hFc (human) (UniProt P01584); assay: competition ELISA on coated IL-1β-hFc, competitor IL-1R1(1-332)-his (anti-His-HRP read-out); antibody 1.000 µg/mL; remark: listed apart in the source
human IL-1β-hFc (human) [29] = target: human IL-1β-hFc (human) (UniProt P01584); assay: competition ELISA on coated IL-1β-hFc, competitor IL-1R1(1-332)-his (anti-His-HRP read-out); antibody 0.037 µg/mL; remark: listed apart in the source
[30] = target: human IL-1β-His-Bio (human) (UniProt P01584); assay: ELISA, IL-1β-His-Bio captured on streptavidin; antibody 0.004 µg/mL
[31] = target: human IL-1β-His-Bio (human) (UniProt P01584); assay: ELISA, IL-1β-His-Bio captured on streptavidin; 4-parameter fit; remark: listed apart in the source
human IL-1β-hFc (human) [32] = target: human IL-1β-hFc (human) (UniProt P01584); assay: competition ELISA on coated IL-1β-hFc, competitor IL-1R1(1-332)-his; 4-parameter fit; remark: listed apart in the source

canakinumab (trade name Ilaris) (antibody)
OD (450 nm) [1]: 0.315 OD450
OD (450 nm) of blocking assay (human IL-1β-hFc (human) [2]): 0.091 OD450 and 0.092 OD450
OD (450 nm) [3]: 2.87 OD450
OD (450 nm) of blocking assay (human IL-1β-hFc (human) [4]): 0.059 OD450 and 0.057 OD450
OD (450 nm) [5]: 2.46 OD450 and 2.61 OD450
OD (450 nm) of blocking assay (human IL-1β-hFc (human) [6]): 0.736 OD450 and 0.705 OD450
OD (450 nm) [7]: 0.852 OD450 and 1.11 OD450
OD (450 nm) [8]: 1.7 OD450 and 1.96 OD450
OD (450 nm) of blocking assay (human IL-1β-hFc (human) [9]): 0.519 OD450 and 0.526 OD450
OD (450 nm) [10]: 2.9 OD450 and 2.88 OD450
EC50 [11]: 39 pM
OD (450 nm) of blocking assay (human IL-1β-hFc (human) [12]): 0.727 OD450 and 0.684 OD450
OD (450 nm) of blocking assay (human IL-1β-hFc (human) [13]): 0.053 OD450 and 0.052 OD450
OD (450 nm) [14]: 2.06 OD450 and 2.12 OD450
OD (450 nm) of blocking assay (human IL-1β-hFc (human) [15]): 0.104 OD450 and 0.126 OD450
OD (450 nm) of blocking assay (human IL-1β-hFc (human) [16]): 0.572 OD450 and 0.579 OD450
EC50 (human IL-1β-hFc (human) [17]): 961 pM
OD (450 nm) [18]: 2.64 OD450 and 2.68 OD450
OD (450 nm) of blocking assay (human IL-1β-hFc (human) [19]): 0.577 OD450 and 0.72 OD450
Kd (human IL-1β-his (human)): 97.9 pM
OD (450 nm) [20]: 0.408 OD450 and 0.573 OD450
OD (450 nm) of blocking assay (human IL-1β-hFc (human) [21]): 0.765 OD450 and 0.735 OD450
OD (450 nm) [22]: 2.81 OD450 and 2.94 OD450
OD (450 nm) [23]: 2.68 OD450 and 2.88 OD450
OD (450 nm) [24]: 2.9 OD450 and 2.89 OD450
OD (450 nm) [25]: 0.581 OD450 and 0.559 OD450
OD (450 nm) of blocking assay (human IL-1β-hFc (human) [26]): 0.797 OD450 and 0.706 OD450
OD (450 nm) of blocking assay (human IL-1β-hFc (human) [27]): 0.738 OD450 and 0.559 OD450
OD (450 nm) of blocking assay (human IL-1β-hFc (human) [28]): 0.093 OD450 and 0.088 OD450
OD (450 nm) of blocking assay (human IL-1β-hFc (human) [29]): 0.366 OD450 and 0.379 OD450
OD (450 nm) [30]: 1.26 OD450 and 1.2 OD450
EC50 [31]: 57 pM
EC50 (human IL-1β-hFc (human) [32]): 260 pM
